Reference: patent US20230243823, “BIOMARKER SENSOR-BASED DETECTION OF DISEASE-SPECIFIC BIOMARKERS” (FORSCHUNGSZENTRUM JÜLICH GMBH, published 2023)

Target: lactate dehydrogenase (PfLDH) (Plasmodium falciparum, UniProt Q76NM3 Q76NM3:1-316)
Test: sandwich plasmon-enhanced fluorescence apta-immunosensor; PfLDH captured by anti-pLDH on AuNPs from diluted human blood; 0.1 uM aptamer in 10 mM PBS with 1 mM MgCl2 pH 7.1; signal orders of magnitude above PvLDH
Settings: tags: obtained by bacterial expression; chain copies: 4
Protocol: Uninfected human blood was diluted 1:100 in 25 mM Tris buffer to reduce sample turbidity. The desired amount of Plasmodium falciparum lactate dehydrogenase (P<DH) was added to 1 ml of a diluted solution of the sample to obtain analyte concentrations ranging from 1 fM to 1 μm (based on the undiluted blood). The functionalised substrates were incubated with 1 ml of contaminated blood solution for 2 hours at room temperature.
The specificity of the apta immunosensor was tested against lactate dehydrogenase of Plasmodium vivax (P<LDH), which is 90% identical to P<LDH. The P<LDH was added to uninfected human blood (diluted 1:100 in 1 mL 25 mM Tris buffer) to obtain the highest analyte concentration tested in the calibration curve (1 μM based on undiluted whole blood).

CTGGGCGGTAGAACCATAGTGACCCAGCCGTCTAC (ssDNA) [malaria 2008s aptamer]
binding result: binds
